Assays:
[1] = target: mon2_human MON2 (UniProt Q7Z3U7)
[2] = target: klc2_human KLC2 (UniProt Q9H0B6)
klc2_human KLC2, sequence (Q9H0B6 whole entry): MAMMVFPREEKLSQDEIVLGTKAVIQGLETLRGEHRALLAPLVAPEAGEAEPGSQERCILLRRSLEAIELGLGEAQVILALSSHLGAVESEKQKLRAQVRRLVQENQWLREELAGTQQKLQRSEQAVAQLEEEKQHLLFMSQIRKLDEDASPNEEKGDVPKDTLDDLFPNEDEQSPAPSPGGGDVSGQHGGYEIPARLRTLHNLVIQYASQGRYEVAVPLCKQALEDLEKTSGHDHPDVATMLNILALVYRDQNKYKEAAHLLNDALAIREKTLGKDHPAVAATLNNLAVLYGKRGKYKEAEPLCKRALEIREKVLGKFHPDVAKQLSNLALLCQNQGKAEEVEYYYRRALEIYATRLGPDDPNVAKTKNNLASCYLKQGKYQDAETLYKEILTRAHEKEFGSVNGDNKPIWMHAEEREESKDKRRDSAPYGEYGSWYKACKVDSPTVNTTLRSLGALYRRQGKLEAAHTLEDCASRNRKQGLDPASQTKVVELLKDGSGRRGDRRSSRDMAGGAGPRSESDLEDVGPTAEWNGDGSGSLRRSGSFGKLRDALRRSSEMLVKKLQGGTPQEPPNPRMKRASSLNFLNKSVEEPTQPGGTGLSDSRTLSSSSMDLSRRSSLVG

mon2_human MON2, sequence (Q7Z3U7 whole entry): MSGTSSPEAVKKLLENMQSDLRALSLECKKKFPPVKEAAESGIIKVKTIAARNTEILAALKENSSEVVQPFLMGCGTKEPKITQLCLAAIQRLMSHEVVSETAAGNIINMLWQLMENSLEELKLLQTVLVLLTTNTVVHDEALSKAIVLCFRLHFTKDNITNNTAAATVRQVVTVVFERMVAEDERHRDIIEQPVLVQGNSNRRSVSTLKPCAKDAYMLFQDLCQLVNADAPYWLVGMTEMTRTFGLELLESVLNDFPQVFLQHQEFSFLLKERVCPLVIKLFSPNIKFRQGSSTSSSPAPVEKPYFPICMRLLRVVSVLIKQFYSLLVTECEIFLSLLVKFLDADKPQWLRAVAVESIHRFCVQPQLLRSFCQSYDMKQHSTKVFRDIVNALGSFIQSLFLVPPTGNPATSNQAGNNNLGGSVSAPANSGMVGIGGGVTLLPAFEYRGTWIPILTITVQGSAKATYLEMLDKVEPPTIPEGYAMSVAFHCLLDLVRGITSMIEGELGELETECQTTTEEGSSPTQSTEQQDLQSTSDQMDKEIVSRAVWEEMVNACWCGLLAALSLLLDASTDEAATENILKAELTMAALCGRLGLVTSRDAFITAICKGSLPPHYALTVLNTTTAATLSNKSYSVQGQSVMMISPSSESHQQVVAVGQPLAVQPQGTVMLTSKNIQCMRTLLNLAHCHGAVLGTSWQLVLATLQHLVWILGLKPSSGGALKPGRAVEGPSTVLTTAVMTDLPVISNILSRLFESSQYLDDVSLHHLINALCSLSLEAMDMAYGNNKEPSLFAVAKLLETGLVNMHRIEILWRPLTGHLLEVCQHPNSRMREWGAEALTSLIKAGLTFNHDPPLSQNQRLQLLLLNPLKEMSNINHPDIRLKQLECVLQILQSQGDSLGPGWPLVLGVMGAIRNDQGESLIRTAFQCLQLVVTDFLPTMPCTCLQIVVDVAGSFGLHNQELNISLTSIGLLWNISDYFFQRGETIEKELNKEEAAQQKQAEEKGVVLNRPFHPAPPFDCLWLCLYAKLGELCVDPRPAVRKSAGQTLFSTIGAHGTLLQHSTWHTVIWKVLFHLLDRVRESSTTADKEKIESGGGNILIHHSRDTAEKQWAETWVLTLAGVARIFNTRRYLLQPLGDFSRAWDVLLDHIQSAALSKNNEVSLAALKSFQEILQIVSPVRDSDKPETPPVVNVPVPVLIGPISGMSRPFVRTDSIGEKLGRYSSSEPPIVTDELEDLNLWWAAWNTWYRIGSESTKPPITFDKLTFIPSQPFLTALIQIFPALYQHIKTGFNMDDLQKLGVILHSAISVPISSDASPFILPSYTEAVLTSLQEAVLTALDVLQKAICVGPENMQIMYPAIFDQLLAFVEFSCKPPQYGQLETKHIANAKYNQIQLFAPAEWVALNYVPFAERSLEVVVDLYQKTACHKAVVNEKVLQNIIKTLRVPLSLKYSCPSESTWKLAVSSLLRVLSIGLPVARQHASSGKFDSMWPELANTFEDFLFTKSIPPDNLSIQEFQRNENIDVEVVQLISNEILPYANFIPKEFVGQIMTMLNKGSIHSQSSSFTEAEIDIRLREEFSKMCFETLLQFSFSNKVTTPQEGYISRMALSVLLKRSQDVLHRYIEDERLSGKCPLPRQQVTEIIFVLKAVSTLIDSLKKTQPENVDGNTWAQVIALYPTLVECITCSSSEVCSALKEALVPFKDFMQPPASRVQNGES

| effect of a mutation on the interaction [1] | effect of a mutation on the interaction [2] | Substance |
| --- | --- | --- |
| with no effect | – | Protein DOP1A (Homo sapiens), Q5JWR5 L2178A;K2179A;R2180A;L2181A |
| – | disrupting interaction strength | Protein DOP1A (Homo sapiens), Q5JWR5 W34A |
| – | disrupting interaction strength | Protein DOP1A (Homo sapiens), Q5JWR5 W186A |

From IntAct's records for PubMed 31324769
